Assay results reported in publication PMC6555819, “Comprehensive study of nuclear receptor DNA binding provides a revised framework for understanding receptor specificity”.

B1: NRC3_wobSeed124_DR5_G10T_o1 (dsDNA)
DNA 1: GCCCTACTGTGCCATTCAGAGGTCATTGATCATATGGCGATTGACAGCGTAGAATGAAGG
DNA 2: CCTTCATTCTACGCTGTCAATCGCCATATGATCAATGACCTCTGAATGGCACAGTAGGGC
B2: NRC3_wobSeed73_DR3_T21A_o1 (dsDNA)
DNA 1: GCCAAACTAGGTCACAGAGGACAAAGTCCGTGCGTAGCGATTGACAGCGTAGAATGAAGG
DNA 2: CCTTCATTCTACGCTGTCAATCGCTACGCACGGACTTTGTCCTCTGTGACCTAGTTTGGC
B3: NRC3_wobSeed4_DR0_T8G_o1 (dsDNA)
DNA 1: GCCCTACGGGGCCAAGGTCATTGATCAGTCAAAGCAGCGATTGACAGCGTAGAATGAAGG
DNA 2: CCTTCATTCTACGCTGTCAATCGCTGCTTTGACTGATCAATGACCTTGGCCCCGTAGGGC
B4: NRC3_wobSeed65_DR2_A9G_o1 (dsDNA)
DNA 1: GCATATGTGGGTTATCGGGTCATTCAGTTTGCGCATGCGATTGACAGCGTAGAATGAAGG
DNA 2: CCTTCATTCTACGCTGTCAATCGCATGCGCAAACTGAATGACCCGATAACCCACATATGC
B5: NRC3_wobSeed6_DR0_A6G_o1 (dsDNA)
DNA 1: GCCCTGGCAGGCCAGGGTCACTCAAGCATTTCGCTTGCGATTGACAGCGTAGAATGAAGG
DNA 2: CCTTCATTCTACGCTGTCAATCGCAAGCGAAATGCTTGAGTGACCCTGGCCTGCCAGGGC
B6: NRC3_wobSeed137_DR5_A16G_o1 (dsDNA)
DNA 1: GCATATGTAGGTTACGTCCGGGTCATTCAGGCTATGGCGATTGACAGCGTAGAATGAAGG
DNA 2: CCTTCATTCTACGCTGTCAATCGCCATAGCCTGAATGACCCGGACGTAACCTACATATGC
B7: NRC3_wobSeed32_DR1_C4A_o1 (dsDNA)
DNA 1: GCTATTGTAGATCAAAGGTTAAGAAAGCCGAAGCCTGCGATTGACAGCGTAGAATGAAGG
DNA 2: CCTTCATTCTACGCTGTCAATCGCAGGCTTCGGCTTTCTTAACCTTTGATCTACAATAGC
B8: NRC3_wobSeed63_DR2_G19A_o1 (dsDNA)
DNA 1: GCCGAACTAGGTCACCAGAACAGTGAAGAGGTTGGAGCGATTGACAGCGTAGAATGAAGG
DNA 2: CCTTCATTCTACGCTGTCAATCGCTCCAACCTCTTCACTGTTCTGGTGACCTAGTTCGGC
B9: NRC3_wobSeed6_DR0_C13G_o1 (dsDNA)
DNA 1: GCCCTAGCAGGCGAGGGTCACTCAAGCATTTCGCTTGCGATTGACAGCGTAGAATGAAGG
DNA 2: CCTTCATTCTACGCTGTCAATCGCAAGCGAAATGCTTGAGTGACCCTCGCCTGCTAGGGC
B10: NRC3_wobSeed88_DR3_T15A_o1 (dsDNA)
DNA 1: GCTAGCCTAGGTCAAGCGGGCCAGTATAGTGTCGGCGCGATTGACAGCGTAGAATGAAGG
DNA 2: CCTTCATTCTACGCTGTCAATCGCGCCGACACTATACTGGCCCGCTTGACCTAGGCTAGC
B11: NRC3_wobSeed64_DR2_T16A_o1 (dsDNA)
DNA 1: GCTAGCCTAGGTCATAGGGCCAGTATAGTACGCATCGCGATTGACAGCGTAGAATGAAGG
DNA 2: CCTTCATTCTACGCTGTCAATCGCGATGCGTACTATACTGGCCCTATGACCTAGGCTAGC
B12: NRC3_wobSeed134_DR5_o1 (dsDNA)
DNA 1: GCGCTGCTAGGTCAACTGATGGTCAGCTAAAGCTCGGCGATTGACAGCGTAGAATGAAGG
DNA 2: CCTTCATTCTACGCTGTCAATCGCCGAGCTTTAGCTGACCATCAGTTGACCTAGCAGCGC
B13: NRC3_wobSeed136_DR5_G21C_o1 (dsDNA)
DNA 1: GCTAGCCTAGGTCATTCAGGCGCCAGTATAGAAAGCGCGATTGACAGCGTAGAATGAAGG
DNA 2: CCTTCATTCTACGCTGTCAATCGCGCTTTCTATACTGGCGCCTGAATGACCTAGGCTAGC
B14: NRC3_wobSeed134_DR5_C13T_o1 (dsDNA)
DNA 1: GCGCTGCTAGGTTAACTGATGGTCAGCTAAAGCTCGGCGATTGACAGCGTAGAATGAAGG
DNA 2: CCTTCATTCTACGCTGTCAATCGCCGAGCTTTAGCTGACCATCAGTTAACCTAGCAGCGC
B15: NRC3_wobSeed124_DR5_C24T_o1 (dsDNA)
DNA 1: GCCCTACTGGGCCATTCAGAGGTTATTGATCATATGGCGATTGACAGCGTAGAATGAAGG
DNA 2: CCTTCATTCTACGCTGTCAATCGCCATATGATCAATAACCTCTGAATGGCCCAGTAGGGC
B16: NRC3_wobSeed69_DR2_G10A_o1 (dsDNA)
DNA 1: GCAGTCAAAATTCACTAGGTAACGTAAGATTCAGCTGCGATTGACAGCGTAGAATGAAGG
DNA 2: CCTTCATTCTACGCTGTCAATCGCAGCTGAATCTTACGTTACCTAGTGAATTTTGACTGC
B17: NRC3_wobSeed17_DR0_G16C_o1 (dsDNA)
DNA 1: GCATATGTAGGTTAGCGTCATTCAGAAAGTAGGGAAGCGATTGACAGCGTAGAATGAAGG
DNA 2: CCTTCATTCTACGCTGTCAATCGCTTCCCTACTTTCTGAATGACGCTAACCTACATATGC
B18: NRC3_wobSeed34_DR1_G10A_o1 (dsDNA)
DNA 1: GCATCGAAAAGTCGAAGGTGAGTATACCCACCCGAAGCGATTGACAGCGTAGAATGAAGG
DNA 2: CCTTCATTCTACGCTGTCAATCGCTTCGGGTGGGTATACTCACCTTCGACTTTTCGATGC
B19: NRC3_wobSeed44_DR1_G10A_o1 (dsDNA)
DNA 1: GCTGAATGAAGTTAAAGATCAGGGAACGTGGCGTCGGCGATTGACAGCGTAGAATGAAGG
DNA 2: CCTTCATTCTACGCTGTCAATCGCCGACGCCACGTTCCCTGATCTTTAACTTCATTCAGC
B20: NRC3_wobSeed82_DR3_A9C_o1 (dsDNA)
DNA 1: GCATCGAACGGTCGACGAGGTGAGTATACACCGTTTGCGATTGACAGCGTAGAATGAAGG
DNA 2: CCTTCATTCTACGCTGTCAATCGCAAACGGTGTATACTCACCTCGTCGACCGTTCGATGC
B21: NRC3_wobSeed44_DR1_G10C_o1 (dsDNA)
DNA 1: GCTGAATGACGTTAAAGATCAGGGAACGTGGCGTCGGCGATTGACAGCGTAGAATGAAGG
DNA 2: CCTTCATTCTACGCTGTCAATCGCCGACGCCACGTTCCCTGATCTTTAACGTCATTCAGC
B22: NRC3_wobSeed18_DR0_G9C_o1 (dsDNA)
DNA 1: GCGATACACGGTCAAGGCCAGAGTACGCGTATTGATGCGATTGACAGCGTAGAATGAAGG
DNA 2: CCTTCATTCTACGCTGTCAATCGCATCAATACGCGTACTCTGGCCTTGACCGTGTATCGC
B23: NRC3_wobSeed30_DR1_C20G_o1 (dsDNA)
DNA 1: GCACTAGCAGGCCAAGGGTGACTCAAGATTAGTCCGGCGATTGACAGCGTAGAATGAAGG
DNA 2: CCTTCATTCTACGCTGTCAATCGCCGGACTAATCTTGAGTCACCCTTGGCCTGCTAGTGC
B24: NRC3_wobSeed58_DR2_A9T_o1 (dsDNA)
DNA 1: GCATCGAATGGTCGTGAGGTGAGTATACAGAAAGGCGCGATTGACAGCGTAGAATGAAGG
DNA 2: CCTTCATTCTACGCTGTCAATCGCGCCTTTCTGTATACTCACCTCACGACCATTCGATGC
B25: NRC3_wobSeed100_DR4_A24C_o1 (dsDNA)
DNA 1: GCCCTACTGGGCCACGAAAGGTCCTTGATTCAGTGAGCGATTGACAGCGTAGAATGAAGG
DNA 2: CCTTCATTCTACGCTGTCAATCGCTCACTGAATCAAGGACCTTTCGTGGCCCAGTAGGGC
B26: NRC3_wobSeed39_DR1_G10A_o1 (dsDNA)
DNA 1: GCCGAACTAAGTCAAAGGACAGTGAAAGGCGACGTAGCGATTGACAGCGTAGAATGAAGG
DNA 2: CCTTCATTCTACGCTGTCAATCGCTACGTCGCCTTTCACTGTCCTTTGACTTAGTTCGGC
B27: NRC3_wobSeed90_DR3_T12A_o1 (dsDNA)
DNA 1: GCCATACAGGGACAGCTAGGCCAGAGTAGGGACGGCGCGATTGACAGCGTAGAATGAAGG
DNA 2: CCTTCATTCTACGCTGTCAATCGCGCCGTCCCTACTCTGGCCTAGCTGTCCCTGTATGGC
B28: NRC3_wobSeed27_DR1_G17T_o1 (dsDNA)
DNA 1: GCACTCGGAGGACAAATGTCAGAGCTACGCCAGTGAGCGATTGACAGCGTAGAATGAAGG
DNA 2: CCTTCATTCTACGCTGTCAATCGCTCACTGGCGTAGCTCTGACATTTGTCCTCCGAGTGC
B29: NRC3_wobSeed76_DR3_C22A_o1 (dsDNA)
DNA 1: GCCCTACTGGGCCAAAAAGGTAATTGATGCCGATAAGCGATTGACAGCGTAGAATGAAGG
DNA 2: CCTTCATTCTACGCTGTCAATCGCTTATCGGCATCAATTACCTTTTTGGCCCAGTAGGGC
B30: NRC3_random_hg19_292_o1 (dsDNA)
DNA 1: GCCAAGACCCTAAGGAACCACTGTGTGGGATGTCAGGCGATTGACAGCGTAGAATGAAGG
DNA 2: CCTTCATTCTACGCTGTCAATCGCCTGACATCCCACACAGTGGTTCCTTAGGGTCTTGGC
B31: NRC3_random_hg19_301_o1 (dsDNA)
DNA 1: GCGAGAACAGACTAACACACACACACACACACACACGCGATTGACAGCGTAGAATGAAGG
DNA 2: CCTTCATTCTACGCTGTCAATCGCGTGTGTGTGTGTGTGTGTGTGTTAGTCTGTTCTCGC
B32: NRC3_random_hg19_240_o1 (dsDNA)
DNA 1: GCGACCATCTCCACACTGCACGATGATGAGATCCTGGCGATTGACAGCGTAGAATGAAGG
DNA 2: CCTTCATTCTACGCTGTCAATCGCCAGGATCTCATCATCGTGCAGTGTGGAGATGGTCGC
B33: NRC3_random_hg19_2_o1 (dsDNA)
DNA 1: GCGTAACAAGAACAAGGCCATACTTTCATGCATCTAGCGATTGACAGCGTAGAATGAAGG
DNA 2: CCTTCATTCTACGCTGTCAATCGCTAGATGCATGAAAGTATGGCCTTGTTCTTGTTACGC

Target: RXRa (Homo sapiens, UniProt P19793)
Test: no ligand; PBM; 180 nM; PBS pH 7.4, 2% milk, 0.02% Triton X-100, 1 mM DTT, BSA, 0.4 mg/ml salmon testes DNA
Conditions: tags: His cleaved; chain copies: 2; label: surface-attached array probe

Sequence of RXRa (P19793 whole entry): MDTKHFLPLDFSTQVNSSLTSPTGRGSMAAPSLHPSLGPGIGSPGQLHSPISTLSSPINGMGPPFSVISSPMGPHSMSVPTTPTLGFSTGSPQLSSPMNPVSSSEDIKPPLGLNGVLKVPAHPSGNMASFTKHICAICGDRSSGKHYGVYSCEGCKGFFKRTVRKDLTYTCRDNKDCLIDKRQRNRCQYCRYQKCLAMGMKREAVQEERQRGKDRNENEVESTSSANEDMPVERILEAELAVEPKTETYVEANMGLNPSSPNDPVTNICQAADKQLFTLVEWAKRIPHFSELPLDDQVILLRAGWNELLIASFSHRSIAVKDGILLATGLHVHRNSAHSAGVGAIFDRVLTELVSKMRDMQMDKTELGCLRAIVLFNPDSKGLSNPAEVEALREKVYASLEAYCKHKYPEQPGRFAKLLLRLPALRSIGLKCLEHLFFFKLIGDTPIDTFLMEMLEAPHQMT

Binder	binding signal
B1	3.59 PBM z-score against 500 random probes
B2	3.55 PBM z-score against 500 random probes
B3	3.5 PBM z-score against 500 random probes
B4	3.44 PBM z-score against 500 random probes
B5	3.39 PBM z-score against 500 random probes
B6	3.33 PBM z-score against 500 random probes
B7	3.28 PBM z-score against 500 random probes
B8	3.24 PBM z-score against 500 random probes
B9	3.19 PBM z-score against 500 random probes
B10	3.14 PBM z-score against 500 random probes
B11	3.11 PBM z-score against 500 random probes
B12	3.07 PBM z-score against 500 random probes
B13	3 PBM z-score against 500 random probes
B14	0.49 PBM z-score against 500 random probes
B15	0.48 PBM z-score against 500 random probes
B16	0.46 PBM z-score against 500 random probes
B17	0.46 PBM z-score against 500 random probes

Binder	binding signal
B18	0.45 PBM z-score against 500 random probes
B19	0.44 PBM z-score against 500 random probes
B20	0.44 PBM z-score against 500 random probes
B21	0.4 PBM z-score against 500 random probes
B22	0.39 PBM z-score against 500 random probes
B23	0.36 PBM z-score against 500 random probes
B24	0.34 PBM z-score against 500 random probes
B25	0.26 PBM z-score against 500 random probes
B26	0.22 PBM z-score against 500 random probes
B27	0.2 PBM z-score against 500 random probes
B28	0.08 PBM z-score against 500 random probes
B29	0.01 PBM z-score against 500 random probes
B30	0.44 PBM z-score against 500 random probes
B31	0.4 PBM z-score against 500 random probes
B32	0.1 PBM z-score against 500 random probes
B33	0.08 PBM z-score against 500 random probes
